Data from article PMC9089796.

Molecular target: His6-tagged SRC SH3SH2 (residues 84-251) (human) (UniProt P12931)
Assay: SPR; His6-SRC SH3SH2 captured on Ni-NTA dextran chip (NiD200M); PTP4A1 injected for 60 seconds at 50 μL/min; 25°C; 20 mM Tris pH 8.0, 250 mM NaCl, 0.05% Tween 20; single injections fit with a 1-to-1 model

Substance: oxidized PTP4A1 (residues 1-160) for SPR and NMR (from UniProt Q93096 1-160) (domain or fragment)
- Kd: 1500 nM
